Literature values as cited in PMC6155412.

Molecular target: FPR2 (Homo sapiens) (UniProt P25090)
Chain of UniProt P25090 (P25090 whole entry): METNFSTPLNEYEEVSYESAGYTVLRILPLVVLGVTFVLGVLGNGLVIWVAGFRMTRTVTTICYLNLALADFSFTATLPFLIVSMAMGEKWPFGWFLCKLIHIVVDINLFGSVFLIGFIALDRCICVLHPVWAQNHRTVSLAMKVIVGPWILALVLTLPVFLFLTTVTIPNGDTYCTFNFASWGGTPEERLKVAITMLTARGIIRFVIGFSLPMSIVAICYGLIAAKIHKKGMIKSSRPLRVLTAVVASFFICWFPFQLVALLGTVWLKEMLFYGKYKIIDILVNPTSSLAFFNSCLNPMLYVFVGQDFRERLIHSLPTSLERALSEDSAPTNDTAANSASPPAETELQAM

Kd: 33 nM
Substance: uteroglobin (UG) (from UniProt P11684)
